The values below come from US20240352133A1.

Positions count from the first letter of the chain named.

For assay [1], the target named is Recombinant human his-tagged IGF 1R extracellular domain protein (human) (UniProt P08069). Description: SPR, captured antibody, dissociation at pH 6.
The target is the same in assay [2]. Description: SPR, captured antibody, pH 7.4. For orientation: SPR reads the build-up and loss of mass on a sensor chip optically.

B1: VRDN-03038 (antibody, V domains shown)
VH: QVELVESGGGVVQPGRSQRLSCAASGFTFSSYGMHWVRQAPGKGLEWVAIIWFDGSSTYYADSVRGRFTISRDNSKNTLYLQMNSLRAEDTAVYFCARELGRRYFDLWGRGTLVSVSS
VL: EIVLTQSPATLSLSPGERATLSCHASQSVSSYLAWYQQKPGQAPRLLIYDASKRATGIPARFSGSGSGTDFTLTISSLEPEDFAVYYCQQRSKWPPWTFGQGTKVESK
By Kd is commonly meant the concentration at which binding is half-saturated. In general, koff refers to a measure of how fast the partners let go of each other. For orientation: kon means the rate constant with which the complex forms. B1: in assay [1], the Kd came to 1.4 nM, the koff came to 0.000115 s⁻¹ and the kon is 82000 M⁻¹ s⁻¹. Besides, in assay [2], the Kd was found to be 1.72 nM, the koff came to 0.000167 s⁻¹ and the kon worked out at 96900 M⁻¹ s⁻¹.

B2: VRDN-03049 (antibody, V domains shown)
VH: B1 VH
VL: B1 VL with H24R, D50H
As for B2, in assay [1], the Kd amounted to 2.7 nM, the koff was determined as 0.000201 s⁻¹ and the kon is 74300 M⁻¹ s⁻¹. Moreover, in assay [2], the Kd came to 1.56 nM, the koff was determined as 0.000183 s⁻¹ and the kon is 117000 M⁻¹ s⁻¹.

B3: VRDN-03045 (antibody, V domains shown)
VH: B1 VH
VL: B1 VL with H24R, S31H
With B3, in assay [1], the Kd is 0.624 nM, the koff was found to be 5.02e-05 s⁻¹ and the kon was found to be 80500 M⁻¹ s⁻¹. Further, in assay [2], the Kd is 1.29 nM, the koff stood at 0.000135 s⁻¹ and the kon was 105000 M⁻¹ s⁻¹.

B4: VRDN-03046 (antibody, V domains shown)
VH: B1 VH
VL: B1 VL with H24R, Y32H
With B4, in assay [1], the dissociation constant (Kd) was 1.87 nM, the koff stood at 0.000159 s⁻¹ and the kon was determined as 84800 M⁻¹ s⁻¹. In assay [2], the equilibrium dissociation constant (Kd) amounted to 1.58 nM, the koff is 0.000162 s⁻¹ and the kon is 103000 M⁻¹ s⁻¹.

B5: VRDN-03050 (antibody, V domains shown)
VH: B1 VH
VL: B1 VL with H24R, A51H
On to B5, for which, in assay [1], the Kd stood at 2.25 nM, the koff was determined as 0.00017 s⁻¹ and the on-rate constant (kon) came to 75800 M⁻¹ s⁻¹. In assay [2], the Kd was found to be 2.03 nM, the koff is 0.00021 s⁻¹ and the kon stood at 103000 M⁻¹ s⁻¹.

B6: VRDN-03041 (antibody, V domains shown)
VH: B1 VH
VL: B1 VL with H24R, Q27H
For B6, in assay [1], the Kd was 0.556 nM, the koff stood at 3.61e-05 s⁻¹ and the kon was determined as 65000 M⁻¹ s⁻¹. In assay [2], the Kd came out at 3.16 nM, the koff was found to be 0.0003 s⁻¹ and the kon worked out at 94900 M⁻¹ s⁻¹.

B7: VRDN-03044 (antibody, V domains shown)
VH: B1 VH
VL: B1 VL with H24R, S30H
Turning to B7, in assay [1], the Kd was 3.79 nM, the koff was 0.000217 s⁻¹ and the kon is 57300 M⁻¹ s⁻¹. Also, in assay [2], the Kd came to 1.96 nM, the koff worked out at 0.000192 s⁻¹ and the kon was 98400 M⁻¹ s⁻¹.

B8: VRDN-03047 (antibody, V domains shown)
VH: B1 VH
VL: B1 VL with H24R, L33H
Turning to B8, in assay [1], the dissociation constant Kd was 3.77 nM, the dissociation rate constant (koff) turned out to be 0.000294 s⁻¹ and the kon was found to be 78100 M⁻¹ s⁻¹. Moreover, in assay [2], the Kd worked out at 2.95 nM, the koff worked out at 0.000282 s⁻¹ and the kon came to 95700 M⁻¹ s⁻¹.

B9: VRDN-03039 (antibody, V domains shown)
VH: B1 VH
VL: B1 VL with H24R, A25H
With B9, in assay [1], the Kd amounted to 14.3 nM, the koff was 0.00563 s⁻¹ and the kon came to 394000 M⁻¹ s⁻¹. Further, in assay [2], the Kd came to 11.3 nM, the koff came to 0.00332 s⁻¹ and the kon turned out to be 294000 M⁻¹ s⁻¹.

B10: VRDN-03043 (antibody, V domains shown)
VH: B1 VH
VL: B1 VL with H24R, V29H
As to B10, in assay [1], the Kd is 18.2 nM, the koff was found to be 0.0253 s⁻¹ and the on-rate (kon) is 1.39e+06 M⁻¹ s⁻¹. Further, in assay [2], the Kd is 22.4 nM, the koff was 0.0111 s⁻¹ and the kon stood at 493000 M⁻¹ s⁻¹.

B11: VRDN-03042 (antibody, V domains shown)
VH: B1 VH
VL: B1 VL with H24R, S28H
With B11, in assay [1], the Kd was 1.2 nM, the koff came to 9.44e-05 s⁻¹ and the kon was 78400 M⁻¹ s⁻¹. Moreover, in assay [2], the Kd amounted to 1.53 nM, the koff came out at 0.000172 s⁻¹ and the kon worked out at 112000 M⁻¹ s⁻¹.

B12: VRDN-03051 (antibody, V domains shown)
VH: B1 VH
VL: B1 VL with H24R, S52H
Turning to B12, in assay [1], the dissociation constant (Kd) is 2.12 nM, the koff amounted to 0.000162 s⁻¹ and the kon was 76200 M⁻¹ s⁻¹. Moreover, in assay [2], the Kd was 1.86 nM, the koff was 0.000203 s⁻¹ and the kon is 110000 M⁻¹ s⁻¹.

B13: VRDN-03053 (antibody, V domains shown)
VH: B1 VH
VL: B1 VL with H24R, R54H
With B13, in assay [1], the Kd came out at 1.67 nM, the koff is 0.00016 s⁻¹ and the kon amounted to 95500 M⁻¹ s⁻¹. Besides, in assay [2], the Kd amounted to 1.79 nM, the koff stood at 0.000188 s⁻¹ and the kon came to 105000 M⁻¹ s⁻¹.

B14: VRDN-03115 (antibody, V domains shown)
VH: QVQLVESGGGVVQPGRSLRLSCAASGFTFSDHYMDWVRQAPGKGLEWVAIIWFDGSSKYYPGSVKGRFTISRDNSKNTLYLQMNSLRAEDTAVYYCARELGRRYFDIWGRGTLVTVSS
VL: EIVMTQSPATLSVSPGERATLSCRASQGVSSYLAWYQQKPGQAPRLLIYGASTRATGIPARFSGSGSGTEFTLTISSLQSEDFAVYYCQQRSRWPPWTFGQGTKLEIK
In the case of B14, in assay [1], the Kd amounted to 1.21 nM, the koff is 0.000297 s⁻¹ and the kon worked out at 246000 M⁻¹ s⁻¹.

B15: VRDN-03127 (antibody, V domains shown)
VH: B14 VH with Q1E, H32Y, Y33T, D35H, P61A, G62D, G66S, R110Q
VL: B14 VL
For B15, in assay [2], the Kd was 0.573 nM, the koff is 7.48e-05 s⁻¹ and the kon turned out to be 131000 M⁻¹ s⁻¹.

B16: VRDN-03126 (antibody, V domains shown)
VH: B14 VH with Q1E, S30D, H32Y, Y33T, D35H, I50V, F53Y, P61A, G62D, R110Q
VL: B14 VL
As for B16, in assay [2], the Kd was 8.7 nM, the koff was 0.00297 s⁻¹ and the kon was determined as 341000 M⁻¹ s⁻¹.

B17: VRDN-03137 (antibody, V domains shown)
VH: B14 VH with Q1E, S30D, H32Y, Y33A, D35H, I50V, F53Y, P61A, G62D, R110Q
VL: B14 VL with Y32N, Q101G
On to B17, for which, in assay [2], the Kd came out at 15.1 nM, the koff came out at 0.0142 s⁻¹ and the kon is 940000 M⁻¹ s⁻¹.

B18: VRDN-03134 (antibody, V domains shown)
VH: EVQLVESGGGVVQPGRSLRLSCAASGFTFSSYSMHWVRQAPGKGLEWVAVIWYDGSSKYYADSVKSRFTISRDNSKNTLYLQMNSLRAEDTAVYYCARELGRRYFDIWGQGTLVTVSS
VL: B14 VL with Y32N, Q101G
For B18, in assay [2], the Kd was 4.89 nM, the koff worked out at 0.0012 s⁻¹ and the kon was 245000 M⁻¹ s⁻¹.

B19: VRDN-03136 (antibody, V domains shown)
VH: B18 VH with S30D, S31D, S33T, V50I, Y53F, S66G
VL: B14 VL with Y32N, Q101G
With B19, in assay [2], the Kd was found to be 2.84 nM, the koff turned out to be 0.000253 s⁻¹ and the kon turned out to be 89100 M⁻¹ s⁻¹.

B20: VRDN-03132 (antibody, V domains shown)
VH: B18 VH with S66G
VL: B14 VL with Y32N, Q101G
Take B20: in assay [2], the Kd was determined as 10.1 nM, the koff worked out at 0.004 s⁻¹ and the kon turned out to be 395000 M⁻¹ s⁻¹.

B21: VRDN-03138 (antibody, V domains shown)
VH: B18 VH with S30D, S31D, S33T, S66G
VL: B14 VL with Y32N, Q101G
Consider B21, for which, in assay [2], the Kd was 8.75 nM, the koff was 0.00433 s⁻¹ and the kon came out at 495000 M⁻¹ s⁻¹.

B22: VRDN-03129 (antibody, V domains shown)
VH: B18 VH with V50I, Y53F, S57N
VL: B14 VL with Y32N, Q101G
With B22, in assay [2], the Kd was 11 nM, the koff was determined as 0.00709 s⁻¹ and the kon turned out to be 646000 M⁻¹ s⁻¹.

B23: VRDN-03130 (antibody, V domains shown)
VH: B18 VH with V50I, Y53F, A61V
VL: B14 VL with Y32N, Q101G
On to B23, for which, in assay [2], the Kd is 2.72 nM, the koff was determined as 0.000275 s⁻¹ and the kon worked out at 101000 M⁻¹ s⁻¹.

B24: VRDN-03133 (antibody, V domains shown)
VH: B18 VH with Q110R
VL: B14 VL with Y32N, Q101G
As to B24, in assay [2], the Kd worked out at 6.51 nM, the koff stood at 0.00228 s⁻¹ and the kon came to 350000 M⁻¹ s⁻¹.

B25: VRDN-03128 (antibody, V domains shown)
VH: B14 VH with Q1E, H32Y, Y33T, D35H
VL: B14 VL with Y32N, Q101G
Turning to B25, in assay [2], the Kd is 7.3 nM, the koff came out at 0.00241 s⁻¹ and the kon came to 331000 M⁻¹ s⁻¹.

B26: VRDN-03135 (antibody, V domains shown)
VH: B18 VH with S30D, S31D, S33A, V50I, Y53F, S66G
VL: B14 VL with Y32N, Q101G
As to B26, in assay [2], the Kd is 4.06 nM, the koff stood at 0.000414 s⁻¹ and the kon was determined as 102000 M⁻¹ s⁻¹.

B27: VRDN-03139 (antibody, V domains shown)
VH: B18 VH with S31D, S33T, V50I, Y53F
VL: B14 VL with Y32N, Q101G
In the case of B27, in assay [2], the Kd is 2.46 nM, the koff worked out at 0.000262 s⁻¹ and the kon was determined as 107000 M⁻¹ s⁻¹.

B28: VRDN-03131 (antibody, V domains shown)
VH: B18 VH with V50I, Y53F, S57E, A61V
VL: B14 VL with Y32N, Q101G
As for B28, in assay [2], the Kd is 16.2 nM, the koff worked out at 0.00141 s⁻¹ and the kon amounted to 86900 M⁻¹ s⁻¹.
